The assay addresses sEGFR (soluble extracellular region of EGFR, wild type) (Homo sapiens, UniProt P00533). Put plainly: SPR.

B1: necitumumab Fab (Fab11F8) (Fab, V domains shown)
VH: QVQLQESGPGLVKPSQTLSLTCTVSGGSISSGDYYWSWIRQPPGKGLEWIGYIYYSGSTDYNPSLKSRVTMSVDTSKNQFSLKVNSVTAADTAVYYCARVSIFGVGTFDYWGQGTLVTVSS
VL: EIVMTQSPATLSLSPGERATLSCRASQSVSSYLAWYQQKPGQAPRLLIYDASNRATGIPARFSGSGSGTDFTLTISSLEPEDFAVYYCHQYGSTPLTFGGGTKAEIK
B1 had a dissociation constant (Kd) of 6.1 nM.

These data come from PMC5925748 (Molecular cancer therapeutics, 2017).
